Test results reported in patent US20180031580.

Target: insulin-like growth factor type 1 (IGF-1)

B1: dipeptidyl-peptidase 4 (DPP-4) (protein)
chain: NKGTDDATADSRKTYTLTDYLKNTYRLKLYSLRWISDHEYLYKQENNILVFNAEYGNSSVFLENSTFDEFGHSINDYSISPDGQFILLEYNYVKQWRHSYTASYDIYDLNKRQLITEERIPNNTQWVTWSPVGHKLAYVWNNDIYVKIEPNLPSYRITWTGKEDIIYNGITDWVYEEEVFSAYSALWWSPNGTFLAYAQFNDTEVPLIEYSFYSDESLQYPKTVRVPYPKAGAVNPTVKFFVVNTDSLSSVTNATSIQITAPASMLIGDHYLCDVTWATQERISLQWLRRIQNYSVMDICDYDESSGRWNCLVARQHIEMSTTGWVGRFRPSEPHFTLDGNSFYKIISNEEGYRHICYFQIDKKDCTFITKGTWEVIGIEALTSDYLYYISNEYKGMPGGRNLYKIQLSDYTKVTCLSCELNPERCQYYSVSFSKEAKYYQLRCSGPGLPLYTLHSSVNDKGLRVLEDNSALDKMLQNVQMPSKKLDFIILNETKFWYQMILPPHFDKSKKYPLLLDVYAGPCSQKADTVFRLNWATYLASTENIIVASFDGRGSGYQGDKIMHAINRRLGTFEVEDQIEAARQFSKMGFVDNKRIAIWGWSYGGYVTSMVLGSGSGVFKCGIAVAPVSRWEYYDSVYTERYMGLPTPEDNLDHYRNSTVMSRAENFKQVEYLLIHGTADDNVHFQQSAQISKALVDVGVDFQAMWYTDEDHGIASSTAHQHIYTHMSHFIKQCFSLP
- phosphorylation level of ERK or Akt (western blot): when the eNOS-deficient mice treated with IGF-1 was treated with DPP-4, the phosphorylation level of ERK or Akt which is the protein involved in intracellular signaling was reduced
